In patent US11857697B2, “Compositions and methods for obtaining 3-dimensional lung-like epithelium and related uses thereof” (THE REGENTS OF THE UNIVERSITY OF MICHIGAN, priority 2017, dated 2024):
Entries after “also recorded” stand apart in the source; their conditions may differ.

Key:
[1] = system: hPSC-derived human lung organoids (HLOs); test: Marker expression (QRT-PCR, immunofluorescence) in HLOs; format: cell-based; conditions: 42 days 3F then 26 days FGF7 only
Method: Based on results in the mouse showing that FGF7 was permissive for differentiation (FIG. 1), experiments were conducted that hypothesized that removing CHIR-99021 and RA from HLOs grown in 3F media would reduce the number of progenitor cells and increase differentiation of mature cell types within HLO cultures. Foregut spheroids were collected and grown in 3F media for 42 days and were cultured for an additional 26 days in 3F media (control) or media containing FGF7 only (FIG. 10A). […] At the end of the experiment, cultures were collected and assessed for gene and protein expression.
RNA was extracted using the MagMAX-96 Total RNA Isolation System (Life Technologies). RNA quality and concentration was determined on a Nanodrop 2000 spectrophotometer (Thermo Scientific). 100 ng of RNA was used to generate a cDNA library using the SuperScript VILO cDNA master mix kit (Invitrogen) according to manufacturer's instructions. qRT-PCR analysis was conducted using Quantitect SYBR Green Master Mix (Qiagen) on a Step One Plus Real-Time PCR system (Life Technologies). Expression was calculated as a change relative to GAPDH expression using arbitrary units, which were calculated by the following equation: [2^(GAPDH Ct−Gene Ct)]×10,000. A Ct value of 40 or greater was considered not detectable. A list of primer sequences used can be found in Table 1.
Mouse bud, human bud, and HLO tissue was fixed in 4% Paraformaldehyde (Sigma) for 2 hours and rinsed in PBS overnight. Tissue was dehydrated in an alcohol series, with 30 minutes each in 25%, 50%, 75% Methanol:PBS/0.05% Tween-20, followed by 100% Methanol, and then 100% Ethanol. Tissue was processed into paraffin using an automated tissue processor (Leica ASP300). Paraffin blocks were sectioned 5-7 uM thick, and immunohistochemical staining was performed as previously described (Spence et al., 2009). A list of antibodies, antibody information and concentrations used can be found in Table 2. PAS Alcian blue staining was performed using the Newcomer supply Alcian Blue/PAS Stain kit (Newcomer Supply, Inc.) according to manufacturer's instructions.

[2] = system: 12 week human fetal distal epithelial lung buds; test: Isolated human fetal lung bud culture in Matrigel: growth/expansion; format: cell-based; conditions: FGF7 alone, 2, 4 and 6 weeks in culture
From the text: All research utilizing human fetal tissue was approved by the University of Michigan institutional review board. Normal human fetal lungs were obtained from the University of Washington Laboratory of Developmental Biology, and epithelial lung buds were dissected as described below. All experiments were repeated using tissues from 3 individual lungs; 84 day post fertilization of unknown gender, 87 day post fertilization male, and 87 day post fertilization of unknown gender. All tissues were shipped in Belzer's solution at 4 degrees Celsius and were processed and in culture within 24 hours of isolation.
Isolated mouse buds were cultured in 4-6 μl droplets of matrigel, covered with media, and kept at 37 degrees Celsius with 5% Carbon Dioxide. Isolated human fetal lung buds were cultured in 25-50 μl droplets of matrigel, covered with media, and kept at 37 degrees Celsius with 5% Carbon Dioxide.
Distal regions of 12 week fetal lungs were cut into ˜2 mm sections and incubated with dispase, 100% FBS and then 10% FBS as described above, and moved to a sterile petri dish. Mesenchyme was removed by repeated pipetting of distal lung pieces after dispase treatment. Buds were washed with DMEM until mesenchymal cells were no longer visible in the media. Buds were then moved to a 1.5 mL eppendorf tube containing 200 uL of Matrigel, mixed using a p200 pipette, and plated in ˜20 uL droplets in a 24 well tissue culture plate. Plates were placed at 37 degrees Celsius with 5% CO2 for 20 minutes while droplets solidified. 500 uL of media was added to each well containing a droplet. Media was changed every 2-3 days.
All mouse bud, human fetal bud, and hPSC-derived human lung organoids were grown in low-serum basal media (basal media) with added growth factors. […]

B1: Recombinant Human Fibroblast Growth Factor 7 (protein, UniProt P21781 32-194, looked up)
Fibroblast growth factor 7: CNDMTPEQMATNVNCSSPERHTRSYDYMEGGDIRVRRLFCRTQWYLRIDKRGKVKGTQEMKNNYNIMEIRTVAVGIVAIKGVESEFYLAMNKEGKLYAKKECNEDCNFKELILENHYNTYASAKWTHNGGEMFVALNQKGIPVRGKKTKKEQKTAHFLPMAIT
notes: Recombinant human growth factor from R&D systems, used at 10 ng/mL unless otherwise noted
- AECI marker HOPX gene expression ([1]; versus 3F): increased gene expression
- AECII marker SFTPC protein and mRNA expression ([1]; versus 3F): increase in both protein and mRNA expression
- FOXJ1 mRNA expression (QRT-PCR) ([1]; versus 3F): increased significantly
- MUC5AC gene expression (QRT-PCR) ([1]; versus 3F): significant increase
- P63 mRNA expression (QRT-PCR) ([1]; versus 3F): significant increase in mRNA expression
- SOX2 transcript (QRT-PCR) ([1]; versus 3F): significant increase
- SOX9 transcript (QRT-PCR) ([1]; versus 3F): no change
- Increase of SCGB1A1 mRNA level over 3F controls ([1]; not statistically significant): ~100 fold
- Growth of human fetal lung buds in vitro [2]: robust growth in vitro after 2 and 4 weeks, but resulted in reduced growth after 6 weeks; also recorded: supported an initial expansion of buds, but the tissue stopped expanding beyond the 4 week period
